Results: patent US20130156764A1, “NEUTRALIZATION OF FLT3 LIGAND AS A LEUKEMIA THERAPY” (The Johns Hopkins University, priority 2010, published 2013)

Experiments:
[1] = test system: FLT3 autophosphorylation in Molm14 cells (FLT3/ITD); assay: Inhibition of FLT3 autophosphorylation in Molm14 cells in presence of FL (immunoblot); assay type: cell-based; settings: for effect of FL on dose response curve for inhibition of FLT3 autophosphorylation: exogenous FL, in medium and plasma; for effect of addition of FL on inhibition at the highest doses used: medium and plasma
Method: (§1) Leukemia cells were washed in PBS, then lysed by re-suspending them in lysis buffer (20 mM Tris pH 7.4, 100 mM NaCl, 1% Igepal (Sigma, St. Louis, Mo.), 1 mM EDTA, 2 mM NaV04, plus Complete protease inhibitor (Roche)) for 30 minutes while rocking. The extract was clarified by centrifugation at 14,000 rpm and the supernatant was assayed for protein (Bio-Rad, Richmond, Calif.). A 50 μg aliquot was removed as whole-cell lysate for analysis of STAT5, and the remainder was used for immunoprecipitation with anti-FLT3 antibody. Anti-FLT3 antibody (SI8; Santa Cruz Biotechnology, Santa Cruz, Calif.) was added to the extract for overnight incubation, then protein A sepharose (Upstate Biotechnology, Lake Placid, N.Y.) was added for 2 additional hours. Separate SDS-PAGE (sodium dodecylsulfate polyacrylamide electrophoresis) gels for whole-cell lysate and immunoprecipitates were run in parallel, After transfer to Immobilon membranes (Millipore, Bedford, Mass.), immunoblotting was performed with antiphosphotyrosine antibody (4G10; Upstate Biotechnology, Lake Placid, N.Y.) to detect phosphorylated FLT3, and then stripped and re-probed with anti-FLT3 antibody to measure total FLT3. Proteins were visualized using chemiluminescence (ECL; GE Healthcare, Piscataway, N.J.), exposed on Kodak BioMax XAR Film, developed, and scanned using a BioRad GS800 densitometer.

[2] = test system: FLT3; assay: Plasma inhibitory activity (PIA) assay for FLT3 with patient plasma on TF/ITD cells; assay type: cell-based, human; settings: for mean PIA value: AML15 trial
Method: as §1
Frozen plasma samples were thawed and clarified by centrifugation at 14,000 rpm for 2 minutes. All assays described herein were performed within 12 months of collection. For each time point, 2×10^6 TF/ITD were incubated with 1 ml plasma at 37° C. for 1 hour. The cells were washed twice with ice-cold PBS then lysed. After immunoblotting for phosphorylated FLT3 as described above, densitometric analysis was performed on the bands and the PIA for a given plasma sample was calculated by expressing the density of its corresponding band as a percentage of the density of the baseline band (which was arbitrarily set at 100%).

[3] = test system: FLT3; settings: previous monotherapy trials; cited from earlier work
[4] = target: T1, FLT3/ITD mutant (addition of 6 amino acids, RTDFRE, after amino acid No. 596 of full-length FLT3) (human) (UniProt P36888); assay: cell-based or functional assay
T1 sequence: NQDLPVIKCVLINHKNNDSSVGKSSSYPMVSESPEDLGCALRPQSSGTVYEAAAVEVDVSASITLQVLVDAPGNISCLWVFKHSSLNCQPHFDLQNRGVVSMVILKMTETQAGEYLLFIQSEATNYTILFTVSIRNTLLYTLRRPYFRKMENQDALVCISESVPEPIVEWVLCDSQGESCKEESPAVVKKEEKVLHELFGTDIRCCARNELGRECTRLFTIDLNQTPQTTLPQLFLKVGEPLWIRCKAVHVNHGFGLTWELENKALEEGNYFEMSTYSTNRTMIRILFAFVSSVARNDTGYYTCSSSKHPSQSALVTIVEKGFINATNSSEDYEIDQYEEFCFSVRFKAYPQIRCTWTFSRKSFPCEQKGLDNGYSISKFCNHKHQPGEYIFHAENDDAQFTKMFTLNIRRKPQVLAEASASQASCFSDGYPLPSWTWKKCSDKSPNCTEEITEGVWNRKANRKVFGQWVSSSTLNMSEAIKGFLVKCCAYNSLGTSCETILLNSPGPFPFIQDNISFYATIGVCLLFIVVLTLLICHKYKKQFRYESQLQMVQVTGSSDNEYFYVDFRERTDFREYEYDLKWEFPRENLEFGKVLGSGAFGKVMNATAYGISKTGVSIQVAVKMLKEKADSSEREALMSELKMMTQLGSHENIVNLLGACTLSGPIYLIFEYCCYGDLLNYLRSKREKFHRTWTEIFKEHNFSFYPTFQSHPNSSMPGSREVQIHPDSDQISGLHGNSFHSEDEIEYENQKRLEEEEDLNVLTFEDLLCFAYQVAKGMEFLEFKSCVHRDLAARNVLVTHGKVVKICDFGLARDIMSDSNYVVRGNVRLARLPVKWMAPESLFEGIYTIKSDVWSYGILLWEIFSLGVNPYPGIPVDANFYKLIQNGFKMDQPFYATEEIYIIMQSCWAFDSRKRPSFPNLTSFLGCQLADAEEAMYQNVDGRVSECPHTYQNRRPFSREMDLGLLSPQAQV

[5] = target: T2, FLT3/TKD mutant (D835, Aspartic acid to Tyrosine change, in full-length FLT3) (human) (UniProt P36888); assay: cell-based or functional assay
T2 sequence: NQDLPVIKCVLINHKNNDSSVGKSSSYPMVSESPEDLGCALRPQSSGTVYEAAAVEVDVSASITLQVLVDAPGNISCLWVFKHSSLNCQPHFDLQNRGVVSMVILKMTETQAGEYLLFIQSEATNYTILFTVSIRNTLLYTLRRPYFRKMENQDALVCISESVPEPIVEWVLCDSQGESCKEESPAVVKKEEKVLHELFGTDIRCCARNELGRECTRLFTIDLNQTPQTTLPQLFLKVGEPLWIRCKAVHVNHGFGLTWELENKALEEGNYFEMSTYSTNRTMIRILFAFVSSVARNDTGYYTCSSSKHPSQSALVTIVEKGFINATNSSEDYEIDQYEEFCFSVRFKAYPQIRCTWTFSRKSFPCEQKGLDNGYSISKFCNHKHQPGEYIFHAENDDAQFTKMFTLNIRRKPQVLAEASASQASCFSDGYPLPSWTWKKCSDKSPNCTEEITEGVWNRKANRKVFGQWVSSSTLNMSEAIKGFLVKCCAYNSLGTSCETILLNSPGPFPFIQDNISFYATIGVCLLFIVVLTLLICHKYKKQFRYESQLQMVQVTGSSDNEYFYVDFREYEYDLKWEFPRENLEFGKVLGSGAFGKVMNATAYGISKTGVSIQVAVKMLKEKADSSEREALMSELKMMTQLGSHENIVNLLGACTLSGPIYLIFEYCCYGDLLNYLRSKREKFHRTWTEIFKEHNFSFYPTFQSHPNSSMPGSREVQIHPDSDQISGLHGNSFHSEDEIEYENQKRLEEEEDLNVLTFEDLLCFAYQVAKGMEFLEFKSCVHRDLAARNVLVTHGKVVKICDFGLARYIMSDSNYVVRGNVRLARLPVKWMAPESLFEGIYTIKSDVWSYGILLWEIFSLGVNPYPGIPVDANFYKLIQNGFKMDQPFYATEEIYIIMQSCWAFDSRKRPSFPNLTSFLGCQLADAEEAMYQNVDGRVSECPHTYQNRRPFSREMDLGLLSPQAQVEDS

[6] = target: T3, wild-type FLT3 (full-length, expressed in FL-/- MEF cells) (human) (UniProt P36888); assay: cell-based or functional assay
T3 sequence: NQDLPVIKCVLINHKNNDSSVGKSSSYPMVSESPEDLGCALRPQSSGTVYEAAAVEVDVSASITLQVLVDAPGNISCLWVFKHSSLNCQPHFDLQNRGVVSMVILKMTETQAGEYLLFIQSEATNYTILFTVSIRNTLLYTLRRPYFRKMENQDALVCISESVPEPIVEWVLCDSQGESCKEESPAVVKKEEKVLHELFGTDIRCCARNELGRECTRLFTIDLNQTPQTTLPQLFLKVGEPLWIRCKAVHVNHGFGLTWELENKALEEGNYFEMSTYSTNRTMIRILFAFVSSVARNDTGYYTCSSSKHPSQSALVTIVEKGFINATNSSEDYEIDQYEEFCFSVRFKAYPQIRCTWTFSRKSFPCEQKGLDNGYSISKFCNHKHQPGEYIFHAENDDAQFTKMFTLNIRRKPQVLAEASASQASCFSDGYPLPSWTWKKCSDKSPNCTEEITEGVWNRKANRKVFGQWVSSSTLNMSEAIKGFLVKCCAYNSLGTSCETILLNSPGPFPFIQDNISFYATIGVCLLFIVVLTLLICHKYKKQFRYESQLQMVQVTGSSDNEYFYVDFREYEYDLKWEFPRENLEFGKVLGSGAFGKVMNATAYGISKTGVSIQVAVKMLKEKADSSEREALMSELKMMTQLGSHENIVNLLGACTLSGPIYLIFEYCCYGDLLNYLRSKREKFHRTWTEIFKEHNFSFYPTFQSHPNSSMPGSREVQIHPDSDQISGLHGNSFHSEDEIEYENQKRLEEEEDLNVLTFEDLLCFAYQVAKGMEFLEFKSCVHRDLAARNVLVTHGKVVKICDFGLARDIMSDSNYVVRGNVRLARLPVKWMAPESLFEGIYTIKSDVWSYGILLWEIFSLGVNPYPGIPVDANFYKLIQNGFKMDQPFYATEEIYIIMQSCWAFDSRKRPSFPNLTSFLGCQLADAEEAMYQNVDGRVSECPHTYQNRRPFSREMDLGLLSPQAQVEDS

Molecule: CNC(=O)c1cc(Oc2ccc(NC(=O)Nc3ccc(Cl)c(C(F)(F)F)c3)cc2)ccn1 [sorafenib, Sorafenib]
- effect of FL on dose response curve for inhibition of FLT3 autophosphorylation [1]: upward shift in the dose response curves
- effect of addition of FL on inhibition at the highest doses used [1]: loss of complete inhibition

Molecule: O=C(c1ccc(/C=C/c2n[nH]c3ccccc23)cc1)N1CCNCC1 [KW-2449]
- effect of FL on dose response curve for inhibition of FLT3 autophosphorylation [1]: upward shift in the dose response curves
- effect of addition of FL on inhibition at the highest doses used [1]: loss of complete inhibition

Molecule: C[C@]12O[C@H](C[C@]1(O)CO)n1c3ccccc3c3c4c(c5c6ccccc6n2c5c31)CNC4=O [lestaurtinib, Lestaurtinib]
- samples below 15% of baseline FLT3 activity ([2]; AML15 trial (newly diagnosed AML), Day 15 trough): all 18
- mean PIA value ([2]; course 1, 18 samples): 3 % of baseline
- mean PIA value ([2]; courses 2 through 4, 18 samples): 6.8%
- samples achieving target level of inhibition (FLT3 below 15% of baseline) ([2]; Cephalon 204 trial (relapsed AML), Day 15 trough, 78 samples): 62%
- FLT3 autophosphorylation remaining with FL ([1]; 10 μM in plasma, 3 ng/mL FL): significant residual FLT3 autophosphorylation
- effect of FL on dose response curve for inhibition of FLT3 autophosphorylation [1]: upward shift in the dose response curve
- trough levels in vivo sufficient to induce FLT3 inhibition to 15% of baseline [3]: 5 µM

B1: Recombinant human FL (FLT3 ligand), PeproTech (ligand)
chain: TQDCSFQHSPISSDFAVKIRELSDYLLQDYPVTVASNLQDEELCGGLWRLVLAQRWMERLKTVAGSKMQGLLERVNTEIHFVTKCAFQPPPSCLRFVQTNISRLLQETSEQLVALKPWITRQNFSRCLELQCQPDSSTLPPPWSPRPLEATAPTA
- AKT phosphorylation in BaF3/ITD cells after FL stimulation [4]: 1.3 fold
- FLT3 phosphorylation (anti-FLT3 IP, 4G10 immunoblot, densitometry) in FL-/- MEF-ITD cells, FL 100 ng/mL 15 min [4]: > 4 fold
- FLT3 phosphorylation in TF1/ITD cells, exogenous FL 15 min [4]: > 2 fold
- STAT5 phosphorylation in TF1/ITD cells after FL stimulation [4]: 1.8 fold
- apoptotic population (Annexin V/7AAD, FACS) of TF1/ITD cells, 48 h serum-free, with FL [4]: 49.5%
- apoptotic population (Annexin V/7AAD, FACS) of TF1/ITD cells, 48 h serum-free, without FL [4]: 61.3%
- AKT phosphorylation in BaF3/TKD cells after FL stimulation [5]: 2.2 fold
- FLT3 phosphorylation (anti-FLT3 IP, 4G10 immunoblot, densitometry) in FL-/- MEF-TKD cells, FL 100 ng/mL 15 min [5]: > 4 fold
- FLT3 phosphorylation in TF1/TKD cells, exogenous FL 15 min [5]: > 2 fold
- STAT5 phosphorylation in TF1/TKD cells after FL stimulation [5]: 1.8 fold
- apoptotic population (Annexin V/7AAD, FACS) of TF1/TKD cells, 48 h serum-free, with FL [5]: 31.6%
- apoptotic population (Annexin V/7AAD, FACS) of TF1/TKD cells, 48 h serum-free, without FL [5]: 40.2%
- FLT3 phosphorylation (anti-FLT3 IP, 4G10 immunoblot, densitometry) in FL-/- MEF-FLT3 cells, FL 100 ng/mL 15 min [6]: > 4 fold

B2: secreted form of FL expressed from a lentiviral vector (coding sequence from pUMVC3-hFLex plasmid) (ligand)
chain: TQDCSFQHSPISSDFAVKIRELSDYLLQDYPVTVASNLQDEELCGGLWRLVLAQRWMERLKTVAGSKMQGLLERVNTEIHFVTKCAFQPPPSCLRFVQTNISRLLQETSEQLVALKPWITRQNFSRCLELQCQPDSSTLPPPWSPRPLEATAPTAP
- FLT3 phosphorylation in FL-/- MEF-ITD cells stably expressing FL, no exogenous FL [4]: > 3 fold
- FLT3 phosphorylation in FL-/- MEF-TKD cells stably expressing FL, no exogenous FL [5]: > 3 fold
- FLT3 phosphorylation in FL-/- MEF-FLT3 cells stably expressing FL, no exogenous FL [6]: > 3 fold
